{"source": "paper PMC3585277", "about": "“The C-Terminal Region Mesd Peptide Mimics Full-Length Mesd and Acts as an Inhibitor of Wnt/β-Catenin Signaling in Cancer Cells” (PLoS ONE, 2013)", "key": {"HS578T cells [1]": {"tested_on": "HS578T cells", "experiment": "Cell viability, Cell Titer Glo Assay, HS578T cells", "assay_type": "cell-based, human", "description": "(§1) Cell viability was measured in 96-well plates by the Cell Titer Glo Assay (Promega), which is a luminescent assay that is an indicator of live cells as a function of metabolic activity and ATP content."}, "HS578T cells [2]": {"tested_on": "HS578T cells", "experiment": "Cell proliferation assay (trypan blue exclusion), HS578T cells", "assay_type": "cell-based, human", "settings": "DMEM 2% FBS, 10 days, mMesd 2 µM, hMesd (160–197) 4 µM, control peptide 4 µM, n = 3", "description": "(§2) Cells were seeded into 6-well plates at a density of 10000 cells/well. RPMI-1640 or DMEM medium containing 2% FBS was used as assay media. After 16 h incubation, the cells were treated with Mesd or its peptide for 10 days. Media were changed every other day. At the end of the experiment, cells were harvested and counted using the trypan blue exclusion assay."}, "PC-3 cells [3]": {"tested_on": "PC-3 cells", "experiment": "Cell proliferation assay (trypan blue exclusion), PC-3 cells", "assay_type": "cell-based, human", "settings": "PC-3, RPMI-1640 2% FBS, 10 days; mMesd 2 µM, hMesd (160–197) 4 µM, control peptide 4 µM; n = 3", "description": "as §2"}, "LRP6 phosphorylation": {"tested_on": "LRP6 phosphorylation", "experiment": "Western blot of phosphorylated LRP6 in C2C12 cells", "assay_type": "cell-based, mouse", "settings": "C2C12, Wnt3A CM 5%, 6 h; mMesd 0.5 µM, peptide at indicated concentrations", "description": "(§3) Cells in 6-well plates were lysed in 0.5 ml of lysis buffer (phosphate-buffered saline containing 1% Triton X-100 and 1 mM PMSF) at 4°C for 10 min. Equal quantities of protein were subjected to SDS-PAGE under reducing conditions. Following transfer to immobilon-P transfer membrane, successive incubations with anti-HA, anti-Wnt10b, anti-β-catenin, anti-OPG, anti-phosphorylated-LRP6, anti-LRP6, anti-Axin2, anti-Cyclin D1 or anti-actin, and horseradish peroxidase-conjugated secondary antibody were carried out for 60–120 min at room temperature. The immunoreactive proteins were then detected using the ECL system. Films showing immunoreactive bands were scanned by Kodak Digital Science DC120 Zoom Digital Camera."}, "MDA-MB-231 tumor": {"tested_on": "MDA-MB-231 tumor", "settings": "cited from earlier work"}, "OPG expression": {"tested_on": "OPG expression", "experiment": "Western blot of OPG expression in C2C12 cells", "assay_type": "cell-based, mouse", "settings": "48 h, mMesd 0.5 µM", "description": "as §3"}, "Wnt/β-catenin signaling [4]": {"tested_on": "Wnt/β-catenin signaling", "experiment": "TOPFlash luciferase reporter assay, LRP6-transfected HEK293 cells", "assay_type": "cell-based, human", "settings": "Wnt3A CM 5%, Rspo1 40 ng/ml, mMesd 2 µM, peptide at indicated concentrations, 24 h, normalized to β-galactosidase", "description": "(§4) Cells were plated into 24-well plates. After overnight culture, the cells were transiently transfected with the TOPFlash or Super8XTOPFlash luciferase construct, β-galactosidase-expressing vector, and pcDNA3.1C-Myc-hLRP5, pCS-Myc-hLRP6 or control vector. After 24 h incubation, cells were treated with Mesd, Mesd peptide, Rspo1 and Wnt3A CM. Cells were then lysed 24 h later and both luciferase and β-galactosidase activities were determined. The luciferase activity was normalized to the β-galactosidase activity."}, "Wnt/β-catenin signaling [5]": {"tested_on": "Wnt/β-catenin signaling", "experiment": "Super8XTOPFlash luciferase reporter assay, HS578T cells", "assay_type": "cell-based, human", "settings": "24 h treatment", "description": "as §4"}, "Wnt/β-catenin signaling [6]": {"tested_on": "Wnt/β-catenin signaling", "experiment": "Super8XTOPFlash luciferase reporter assay, PC-3 cells", "assay_type": "cell-based, human", "settings": "24 h treatment", "description": "as §4"}, "PC-3 cells [7]": {"tested_on": "PC-3 cells", "experiment": "Cell viability, Cell Titer Glo Assay, PC-3 cells", "assay_type": "cell-based, human", "settings": "Mesd 2 µM or hMesd (160–197) 2 µM with Adriamycin 0.5 µM, 2 days after pre-treatment", "description": "as §1"}, "Wnt/β-catenin signaling [8]": {"tested_on": "Wnt/β-catenin signaling", "experiment": "TOPFlash luciferase reporter assay, LRP5-transfected HEK293 cells", "assay_type": "cell-based, human", "settings": "Wnt3A CM 5%, Rspo1 40 ng/ml, mMesd 2 µM, peptide at indicated concentrations, 24 h, normalized to β-galactosidase", "description": "as §4"}, "PC-3 tumor": {"tested_on": "PC-3 tumor", "settings": "cited from earlier work", "text": "(§5) Treatment of prostate cancer cells with Wnt3A CM or purified recombinant Wnt ..."}, "PC-3 cells [9]": {"tested_on": "PC-3 cells", "settings": "cited from earlier work", "text": "as §5"}, "Wnt/β-catenin signaling [10]": {"tested_on": "Wnt/β-catenin signaling", "settings": "cited from earlier work", "text": "as §5"}}, "data": [{"molecule": "Mesd protein: recombinant mouse Mesd protein, full-length; binds mature LRP5 and LRP6, universal antagonist of LRP5/6 modulators (protein, 125I (IODO-GEN method) on the radioligand; unlabeled when used as competitor) ADTPGEATPPPRKKKDIRDYNDADMARLLEQWEKDDDIEEGDLPEHKRPSAPIDFSKLDPGKPESILKMTKKGKTLMMFVTVSGNPTEKETEEITSLWQGSLFNANYDVQRFIVGSDRAIFMLRDGSYAWEIKDFLVSQDRCAEVTLEGQMYPGKGGGSKEKNKTKPEKAKKKEGDPKPRASKEDNRAGSRREDL", "values": [{"measurement": "Adriamycin-induced cytotoxicity", "setting": "HS578T cells [1]; Mesd 2 µM or hMesd (160–197) 2 µM with Adriamycin 0.5 µM, 2 days after pre-treatment", "result": "potentiate"}, {"measurement": "inhibition of cell viability", "setting": "HS578T cells [1]; single agent: Mesd protein 2 µM or Adriamycin 0.5 µM, Mesd 4 days pre-treatment, then 2 days, n = 4", "result": 25, "unit": "%"}, {"measurement": "cell proliferation", "setting": "HS578T cells [2]", "result": "displayed inhibitory effect"}, {"measurement": "cell proliferation", "setting": "PC-3 cells [3]", "result": "displayed inhibitory effect"}, {"measurement": "Wnt3A-induced endogenous LRP6 phosphorylation", "setting": "LRP6 phosphorylation", "result": "able to suppress"}, {"measurement": "MDA-MB-231 tumor growth", "setting": "MDA-MB-231 tumor", "result": "suppressed"}, {"measurement": "OPG expression induced by Rspo1 plus Wnt3A", "setting": "OPG expression; C2C12, Rspo1 20 ng/ml, Wnt3A CM 2%, mMesd (155–191) 2 µM", "result": "repressed"}, {"measurement": "Wnt3A-induced OPG expression", "setting": "OPG expression; C2C12, Wnt3A CM 5%, peptide at indicated concentrations", "result": "able to suppress"}, {"measurement": "TOPFlash activity induced by LRP6, LRP6 plus Wnt3A, LRP6 plus Rspo1", "setting": "Wnt/β-catenin signaling [4]", "result": "blocked"}, {"measurement": "Wnt reporter luciferase activity induced by Wnt1", "setting": "Wnt/β-catenin signaling [5]; HS578T transfected with Wnt1 plasmid", "result": "significantly repress"}, {"measurement": "Wnt reporter luciferase activity", "setting": "Wnt/β-catenin signaling [5]; HS578T, endogenous signaling, indicated concentrations", "result": "significantly repressed"}, {"measurement": "Wnt reporter luciferase activity", "setting": "Wnt/β-catenin signaling [6]; PC-3, endogenous signaling, indicated concentrations", "result": "significantly repressed"}, {"measurement": "Wnt reporter luciferase activity induced by Wnt1", "setting": "Wnt/β-catenin signaling [6]; PC-3 transfected with Wnt1 plasmid", "result": "significantly repress"}, {"measurement": "Adriamycin-induced cytotoxicity", "setting": "PC-3 cells [7]", "result": "potentiate"}, {"measurement": "TOPFlash activity induced by LRP5, LRP5 plus Wnt3A, LRP5 plus Rspo1", "setting": "Wnt/β-catenin signaling [8]", "result": "blocked"}, {"measurement": "PC-3 tumor growth in vivo", "setting": "PC-3 tumor", "result": "suppressed"}, {"measurement": "PC-3 cell proliferation in vitro", "setting": "PC-3 cells [9]", "result": "suppressed"}, {"measurement": "Wnt/β-catenin signaling in prostate cancer PC-3 cells", "setting": "Wnt/β-catenin signaling [10]", "result": "markedly inhibited"}]}]}
